Data published in article PMC6829520.

Key:
[1] = eGFP fluorescence microscopy with WGA membrane stain, HeLa; settings: glycan lost; control: hTREK-1-WT-eGFP
[2] = TEVC, Xenopus oocytes; settings: glycan lost
[3] = TEVC, oocytes, 24 h versus 48 h; settings: glycan lost; control: wild type
[4] = TEVC, Xenopus oocytes, +20 mV, 48 h; settings: glycan lost; control: wild type
[5] = TEVC pulse step protocol, oocytes, 48 h; settings: glycan lost; control: wild type
[6] = surface biotinylation, streptavidin pull-down, immunoblot, HEK-293T; settings: glycan lost; control: wild type
[7] = TEVC pulse step protocol, oocytes; settings: glycan lost; control: DMSO vehicle
[8] = TEVC, Xenopus oocytes, +20 mV, 24/48 h; settings: glycan lost; control: DMSO vehicle

B1: hTREK-1 / hK2P2.1: N110Q (protein)
parent chain: MLPSASRERPGYRAGVAAPDLLDPKSAAQNSKPRLSFSTKPTVLASRVESDTTINVMKWKTVSTIFLVVVLYLIIGATVFKALEQPHEISQRTTIVIQKQTFISQHSCVNSTELDELIQQIVAAINAGIIPLGNTSNQISHWDLGSSFFFAGTVITTIGFGNISPRTEGGKIFCIIYALLGIPLFGFLLAGVGDQLGTIFGKGIAKVEDTFIKWNVSQTKIRIISTIIFILFGCVLFVALPAIIFKHIEGWSALDAIYFVVITLTTIGFGDYVAGGSDIEYLDFYKPVVWFWILVGLAYFAAVLSMIGDWLRVISKKTKEEVGEFRAHAAEWTANVTAEFKETRRRLSVEIYDKFQRATSIKRKLSAELAGNHNQELTPCRRTLSVNHLTSERDVLPPLLKTESIYLNGLTPHCAGEEIAVIENIK
localisation_or_trafficking [1]: no change | other: resting membrane potential ([2]; control: wild type): changes | other: current at 24 h relative to 48 h (onset of current), other: 24 h current as % of 48 h current [3]: decreases, 54 vs 57 % to 66% | other: channel current, percent_of_wt [4]: decreases | other: current-voltage relationship [5]: no change | localisation_or_trafficking, other: reduction of surface fraction relative to WT [6]: decreases, reduction of surface protein expression (about 16 % for both, N110Q and N134Q)

B2: hTREK-1 / hK2P2.1: N134Q (protein)
parent chain: MLPSASRERPGYRAGVAAPDLLDPKSAAQNSKPRLSFSTKPTVLASRVESDTTINVMKWKTVSTIFLVVVLYLIIGATVFKALEQPHEISQRTTIVIQKQTFISQHSCVNSTELDELIQQIVAAINAGIIPLGNTSNQISHWDLGSSFFFAGTVITTIGFGNISPRTEGGKIFCIIYALLGIPLFGFLLAGVGDQLGTIFGKGIAKVEDTFIKWNVSQTKIRIISTIIFILFGCVLFVALPAIIFKHIEGWSALDAIYFVVITLTTIGFGDYVAGGSDIEYLDFYKPVVWFWILVGLAYFAAVLSMIGDWLRVISKKTKEEVGEFRAHAAEWTANVTAEFKETRRRLSVEIYDKFQRATSIKRKLSAELAGNHNQELTPCRRTLSVNHLTSERDVLPPLLKTESIYLNGLTPHCAGEEIAVIENIK
localisation_or_trafficking [1]: no change | other: resting membrane potential ([2]; control: wild type): changes | other: current at 24 h relative to 48 h (onset of current), other: 24 h current as % of 48 h current [3]: decreases, 41 vs 57 % to 66% | other: channel current, percent_of_wt [4]: decreases | other: current-voltage relationship [5]: no change | localisation_or_trafficking, other: reduction of surface fraction relative to WT [6]: decreases

B3: hTREK-1 / hK2P2.1: N110Q/N134Q (protein)
parent chain: MLPSASRERPGYRAGVAAPDLLDPKSAAQNSKPRLSFSTKPTVLASRVESDTTINVMKWKTVSTIFLVVVLYLIIGATVFKALEQPHEISQRTTIVIQKQTFISQHSCVNSTELDELIQQIVAAINAGIIPLGNTSNQISHWDLGSSFFFAGTVITTIGFGNISPRTEGGKIFCIIYALLGIPLFGFLLAGVGDQLGTIFGKGIAKVEDTFIKWNVSQTKIRIISTIIFILFGCVLFVALPAIIFKHIEGWSALDAIYFVVITLTTIGFGDYVAGGSDIEYLDFYKPVVWFWILVGLAYFAAVLSMIGDWLRVISKKTKEEVGEFRAHAAEWTANVTAEFKETRRRLSVEIYDKFQRATSIKRKLSAELAGNHNQELTPCRRTLSVNHLTSERDVLPPLLKTESIYLNGLTPHCAGEEIAVIENIK
localisation_or_trafficking [1]: no change | other: resting membrane potential ([2]; control: wild type): changes | other: current at 24 h relative to 48 h (onset of current), other: 24 h current as % of 48 h current [3]: decreases, 31 vs 57 % to 66% | other: channel current, percent_of_wt [4]: decreases, a current reduction of 65.5 ± 0.7 % in nonglycosylated subunits | other: current-voltage relationship [5]: no change | localisation_or_trafficking, other: reduction of surface fraction relative to WT [6]: decreases, accompanied by a reduction in surface expression of 70.2%

B4: hTREK-1 / hK2P2.1: tunicamycin (incubation or injection) (protein)
parent chain: MLPSASRERPGYRAGVAAPDLLDPKSAAQNSKPRLSFSTKPTVLASRVESDTTINVMKWKTVSTIFLVVVLYLIIGATVFKALEQPHEISQRTTIVIQKQTFISQHSCVNSTELDELIQQIVAAINAGIIPLGNTSNQISHWDLGSSFFFAGTVITTIGFGNISPRTEGGKIFCIIYALLGIPLFGFLLAGVGDQLGTIFGKGIAKVEDTFIKWNVSQTKIRIISTIIFILFGCVLFVALPAIIFKHIEGWSALDAIYFVVITLTTIGFGDYVAGGSDIEYLDFYKPVVWFWILVGLAYFAAVLSMIGDWLRVISKKTKEEVGEFRAHAAEWTANVTAEFKETRRRLSVEIYDKFQRATSIKRKLSAELAGNHNQELTPCRRTLSVNHLTSERDVLPPLLKTESIYLNGLTPHCAGEEIAVIENIK
other: resting membrane potential ([2]; control: DMSO vehicle): changes

B5: hTREK-1 / hK2P2.1: tunicamycin (protein)
parent chain: MLPSASRERPGYRAGVAAPDLLDPKSAAQNSKPRLSFSTKPTVLASRVESDTTINVMKWKTVSTIFLVVVLYLIIGATVFKALEQPHEISQRTTIVIQKQTFISQHSCVNSTELDELIQQIVAAINAGIIPLGNTSNQISHWDLGSSFFFAGTVITTIGFGNISPRTEGGKIFCIIYALLGIPLFGFLLAGVGDQLGTIFGKGIAKVEDTFIKWNVSQTKIRIISTIIFILFGCVLFVALPAIIFKHIEGWSALDAIYFVVITLTTIGFGDYVAGGSDIEYLDFYKPVVWFWILVGLAYFAAVLSMIGDWLRVISKKTKEEVGEFRAHAAEWTANVTAEFKETRRRLSVEIYDKFQRATSIKRKLSAELAGNHNQELTPCRRTLSVNHLTSERDVLPPLLKTESIYLNGLTPHCAGEEIAVIENIK
other: current-voltage relationship [7]: no change

B6: hTREK-1 / hK2P2.1: tunicamycin incubation (0.75 or 1.5 mg/L) (protein)
parent chain: MLPSASRERPGYRAGVAAPDLLDPKSAAQNSKPRLSFSTKPTVLASRVESDTTINVMKWKTVSTIFLVVVLYLIIGATVFKALEQPHEISQRTTIVIQKQTFISQHSCVNSTELDELIQQIVAAINAGIIPLGNTSNQISHWDLGSSFFFAGTVITTIGFGNISPRTEGGKIFCIIYALLGIPLFGFLLAGVGDQLGTIFGKGIAKVEDTFIKWNVSQTKIRIISTIIFILFGCVLFVALPAIIFKHIEGWSALDAIYFVVITLTTIGFGDYVAGGSDIEYLDFYKPVVWFWILVGLAYFAAVLSMIGDWLRVISKKTKEEVGEFRAHAAEWTANVTAEFKETRRRLSVEIYDKFQRATSIKRKLSAELAGNHNQELTPCRRTLSVNHLTSERDVLPPLLKTESIYLNGLTPHCAGEEIAVIENIK
other: channel current [8]: decreases, tunicamycin treatment (incubation with 1.5 mg/L) resulted in a current reduction of 79.4%

B7: hTREK-1 / hK2P2.1: tunicamycin coinjection (2 or 3 ng per oocyte) (protein)
parent chain: MLPSASRERPGYRAGVAAPDLLDPKSAAQNSKPRLSFSTKPTVLASRVESDTTINVMKWKTVSTIFLVVVLYLIIGATVFKALEQPHEISQRTTIVIQKQTFISQHSCVNSTELDELIQQIVAAINAGIIPLGNTSNQISHWDLGSSFFFAGTVITTIGFGNISPRTEGGKIFCIIYALLGIPLFGFLLAGVGDQLGTIFGKGIAKVEDTFIKWNVSQTKIRIISTIIFILFGCVLFVALPAIIFKHIEGWSALDAIYFVVITLTTIGFGDYVAGGSDIEYLDFYKPVVWFWILVGLAYFAAVLSMIGDWLRVISKKTKEEVGEFRAHAAEWTANVTAEFKETRRRLSVEIYDKFQRATSIKRKLSAELAGNHNQELTPCRRTLSVNHLTSERDVLPPLLKTESIYLNGLTPHCAGEEIAVIENIK
other: channel current [8]: decreases
